Blank lines part the entries; values can stand above or below the binder they belong to.
Assays:
Test in all cases: multimer staining
[1] = biological target: T1, TP53 C141Y peptide on HLA-A*02:01 (human)
T1 peptide: KTYPVQLWV

[2] = biological target: T2, TP53 C141Y, mimic peptide TP53_C141Y8 peptide on HLA-A*02:01 (human)
T2 peptide: KMYPVQLWL

[3] = biological target: T3, PIK3CA G118D peptide on HLA-A*02:01 (human)
T3 peptide: ILNREIDFA

[4] = biological target: T4, PIK3CA G118D, mimic peptide PIK3CA_G118D5 peptide on HLA-A*02:01 (human)
T4 peptide: ILNREIDFV

binding result [1]: recognises
binding result [2]: recognises
B1: TCR of SEQ ID NOs 210 and 114 (TCR)
alpha TRAV8-4*01 TRAJ8*01 CDR3: CAVSDEDTGFQKLVF
beta TRBV12-3*01 TRBJ1-2*01 CDR3: CASSFSTCSANYGYTF

binding result [3]: recognises
binding result [4]: recognises
B2: TCR of SEQ ID NOs 120 and 114 (TCR)
alpha TRAV12-2*01 TRAJ15*01 CDR3: CAGLIGTALIF
beta TRBV12-3*01 TRBJ1-2*01 CDR3: CASSFSTCSANYGYTF

From patent US20220194999A1 (published 2022)
